Source: patent publication US10604566B2, “Antagonists of IL-17C for the treatment and/or prevention of atopic dermatitis” (MORPHOSYS AG, priority 2015, dated 2020)

T1: murine IL-17C (Mus musculus, UniProt Q8K4C5)
T1 sequence (Q8K4C5 17-194): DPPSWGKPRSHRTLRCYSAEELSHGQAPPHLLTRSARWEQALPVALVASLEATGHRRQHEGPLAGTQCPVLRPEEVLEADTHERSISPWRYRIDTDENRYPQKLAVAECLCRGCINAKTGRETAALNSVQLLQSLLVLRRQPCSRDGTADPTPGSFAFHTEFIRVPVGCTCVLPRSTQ

T2: human IL-17C (Homo sapiens, UniProt Q9P0M4)
T2 sequence (Q9P0M4 19-197): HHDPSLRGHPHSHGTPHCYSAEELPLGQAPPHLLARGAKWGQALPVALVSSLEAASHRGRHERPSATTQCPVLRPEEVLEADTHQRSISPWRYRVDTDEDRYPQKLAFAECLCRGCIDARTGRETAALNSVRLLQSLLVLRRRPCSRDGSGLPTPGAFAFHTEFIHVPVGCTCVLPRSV


What was measured:
MC903-treated mice = experiment: MC903 mouse model of atopic dermatitis; type: in vivo, BALB/c mice; conditions: 3x10 mg/kg i.p.
Source text: The pro-inflammatory function of IL-17C in atopic dermatitis was examined in a non-infectious cutaneous inflammation mouse model of atopic dermatitis where topical application of the low-calcemic vitamin D3 analogue MC903 (calcipotriol) induces atopic dermatitis like skin lesion characterized by a red and scaly skin, accompanied by an epidermal hyperplasia and dermal infiltration of various cell types as well as an increase of Th2 cytokine in skin and elevated serum IgE (Li et al., 2006; Li et al, 2009). The MC903 mouse model is a widely accepted and predictable model to mimic the Th2 driven symptoms of atopic dermatitis in vivo.
BALB/c mice (female, 8-week old) were obtained from Janvier Labs (France). Mice were kept on a 12 hours light/dark cycle (0700-1900). Temperature was maintained at 22° C., and food and water were provided ad libitum.
In order to induce an AD-like response, 2 nmol MC903 (Tocris, dissolved in ethanol) was topical applied in a volume of 20 μL on both ears of mice for 5 consecutive days. A non-disease control group received the same quantity of ethanol (EtOH).
The severity of skin inflammation (erythema and thickening) was observed daily. Ear thickness was measured with an electronic caliper (Mitutoyo). Inflammation was further assessed using an in vivo imaging technique. To that end, Prosense 680 probe (1.6 nmol, Perkin Elmer) was administered by intraperitoneal route 24 hours before imaging. Imaging was performed with the Bruker In-vivo Xtreme Imaging System. Images were captured by a deeply cooled 4MP CCD camera (f-stop 1.1, binning 2×2, 5 sec acquisition time, Ex 630 nm, Em 700 nm). For anatomical co-registration, a reflectance image was taken (f-stop 2.8, 0.175 sec acquisition time). All images were taken with a 190×190 field of view and images were analysed using Molecular Imaging Software version 7.1 (Bruker Biospin, Billerica, Mass., USA). For each group, the mean values and standard error of mean (sem) was calculated using for each mouse the mean value of left and right ear.
At sacrifice, samples form ear skin were collected and fixed in 4% formaldehyde before embedding in paraffin. 4 μm-thick slices were stained with hematoxylin and eosin (H&E stain) for histomorphometric evaluation of epidermal thickness by image analysis with Sisn'Com software (France). Five fields per ear (high power field ×20) covering the whole ear from top to bottom were measured, and the 5 values were averaged per ear and per mice (left/right ear). An additional set of tissue slices were prepared for IHC staining of IL-17C using the anti-IL-17C biotinylated MOR12743 antibody (and biotinylated MOR03207 isotype negative control antibody). Processing and staining was essentially done as described above.
Ear skin samples were also taken for analysis of cytokine expression using qPCR or ELISA. […] Ear skin sam pies for quantification at protein level were immediately snap frozen in liquid N2 and stored at −80° C. […] 5 μL of 10-fold diluted cDNA was used in real-time quantitative PCR reactions using SYBR Green technology with gene-specific primers from Qiagen. qPCR was performed on the ViiA™ 7 Real-Time PCR System (Applied Biosystems). Gene expression was normalized to the expression of 3 different house-keeping genes (cyclophilin, b-actin and GAPDH) and expressed as relative mRNA level of specific gene expression as obtained using the 2^−ΔCt method, with ΔCt=Ctgene−Geomean Ct-value (housekeeping genes). […]

murine IL-17C = target: T1, murine IL-17C; experiment: Binding to murine IL-17C and inhibition of IL-17C binding to IL-17RE
Protocol: (§1) The following working examples were performed using the antibodies MOR12743 and MOR22420 (see Table 1). […] Therefore both antibodies are antagonists of IL-17C in the sense of the present disclosure. MOR12743 is already disclosed and characterized in WO 2013/057241 (U.S. Ser. No. 14/351,162), which is incorporated by reference in its entirety.

human IL-17C = target: T2, human IL-17C; experiment: Binding to human IL-17C and inhibition of IL-17C binding to IL-17RE
Protocol: as §1

| specific binding to IL-17C (murine IL-17C) | specific binding to IL-17C (human IL-17C) | Molecule | ear inflammation as assessed by in vivo imaging (MC903-treated mice; day 5, Prosense 680 probe, FIG. 6) | ear redness (MC903-treated mice; day 8, vs MC903+MOR03207 isotype control) | ear swelling (ear thickness) (MC903-treated mice; day 8, vs MC903+MOR03207 isotype control, FIG. 5) | epidermal hyperplasia (epidermal thickness) (MC903-treated mice; histology H&E at sacrifice, FIG. 7) | TSLP expression in ears (MC903-treated mice; protein, ELISA, FIG. 8) | inhibition of binding of IL-17C to its receptor IL-17RE (murine IL-17C) | inhibition of binding of IL-17C to its receptor IL-17RE (human IL-17C) |
| --- | --- | --- | --- | --- | --- | --- | --- | --- | --- |
| specifically bind | – | MOR12743: anti-IL-17C antibody, binds murine IL-17C; VH SEQ ID No.: 11, VL SEQ ID No.: 10; disclosed in WO 2013/057241 (antibody, V domains shown, mab Library) VH: QVQLVQSGAEVKKPGASVKVSCKASGYTFTSNFIHWVRQAPGQGLEWMGWISPYNGDTNYAQKFQGRVTMTRDTSISTAYMELSRLRSEDTAVYYCARESVYYGSDYGYNGMDIWGQGTLVTVSS VL: DIELTQPPSVSVSPGQTASITCSGDNLGEEYVSWYQQKPGQAPVLVIYDDTKRPSGIPERFSGSNSGNTATLTISGTQAEDEADYYCASWDLWSVEVFGGGTKLTVLGQ | significantly reduced | less red | significantly less swollen | partially reduced | significantly inhibited | inhibit binding of IL-17C to its receptor IL-17RE | – |
| – | specifically bind | MOR22420: anti-IL-17C antibody, binds human IL-17C; VH SEQ ID No.: 21, VL SEQ ID No.: 20 (antibody, V domains shown, mab Library) VH: QVQLVQSGAEVKKPGSSVKVSCKASGGTFSSYAISWVRQAPGQGLEWMGTIDPFFGKTYYAQKFQGRVTITADESTSTAYMELSSLRSEDTAVYYCARDVSSISYYFHEYYSDRFDYWGQGTLVTVSS VL: DIALTQPASVSGSPGQSITISCTGTSSDVGGYEYVNWYQQHPGKAPKLMIYDDSYRPSGVSNRFSGSKSGNTASLTISGLQAEDEADYYCQSTDPHSTVVFGGGTKLTVLGQ | – | – | – | – | – | – | inhibit binding of IL-17C to its receptor IL-17RE |
